Assay: soluble on expression in E. coli; label from the status in PepcDB or PDB records

Row | Sequence | soluble on expression in E. coli
1 | MDWKKIYEDRTCTADEAVKSIKSGDRVLFAHCVAEPPVLVEAMVANAAAYKNVTVSHMVTLGKGEYSKPEYKENFTFEGWFTSPSTRGSIAEGHGQFVPVFFHEVPSLIRKDIFHVDVFMVMVSPPDHNGFCCVGVSSDYTMQAIKSAKIVLAEVNDQVPVVYGDTFVHVSEIDKFVETSHPLPEIGLPKIGEVEAAIGKHCASLIEDGSTLQLGIGAIPDAVLSQLKDKKHLGIHSEMISDGVVDLYEAGVIDCSQKSIDKGKMAITFLMGTKRLYDFAANNPKVELKPVDYINHPSVVAQCSKMVCINACLQVDFMGQIVSDSIGTKQFSGVGGQVDFVRGASMSIDGKGKAIIAMPSVAKKKDGSMISKIVPFIDHGAAVTTSRNDADYVVTEYGIAEMKGKSLQDRARALINIAHPDFKDELKAEFEKRFNAAFSAWSHPQFEK | soluble
2 | MDWVRLLSRLVQAESLPGEEGEAAGLLLEALKGMGLEATLDEAGNIEALLGEKGPEVVLTGHMDVVPVGDPARWPYPQGAVAEGSLWGRGAVDMKGSLVAMLLALETLARGALKGRVRFLAVVQEEVGGLGSRFAAERLSPLAFVLGEPSSGRLMRGHRGRRKVWADFEGRETHAALAGPENPLFDLGAYLLALQDLPLPPGVKLTPTRVDTHPGARNQTPGVVRLYLDVRYEPEADLDGLLAALRTLGPASVYLPEEERASGEVRMTLPALWPPYRLPEDHPLLQAALQALGQEEAGLWPFTTDAPYLGAKAPVLGLGPGDPALAHTPMEHVPLRAVEEAAQAYVRLVEALWNAD | soluble
3 | MDYNKTAKDILKLLGGEKNVMSAAHCATRLRLVLKNEKEARTKEIEKLDGVKGVFSSSGQYQIIIGQGSVNKVYKAFVEGTGISESSLSDTKKAAMKNM | not soluble
4 | MEAEELTVGRVHHGHNIRRFRIEKNMNQEVLSQLVHLSQSAVSKYEQMRVIDDEMLHRFSRALGVPFEYLKSLEEDAQTVVFENNTVNNNDQASANIGGYVEENNRVNNYNPIEKITELYERLLKEKDEKYAALERRLQNIEQSLQK | not soluble
5 | MEAGSIVLGLVGKTNVGKSTFFAAATEVPVKIENRPFVTIEPNVGVGYARKRCAHVELGLPRCDPVNSLCIEGWRFIPVKLLDVAGLVPGAHRGRGLGNRFLDDVRKADALLLVVDASGSTDPEGVPVKPGSYDPVEEVGLMLGEIYEWMLQNLARDWERFARRVDTAGNVDLVTALSQRLSGFEIPRGVVAGVLEETGLGEKRLSSWSREDLRLFVKLVLERGKPAVILANKVDVPGAEENVERLGSSYPGIPVVPASALAELMLRRLAREGRVRYIPGDPDFTVKDPGGLGGKALKALELVRERVMKRWGGTGVVQAINTAVFDVLDMIAVYPVEDPNRYTDREGRILPDVILVKRGSTPRDLAYRIHTDLGKTFLYAVNAKTKQRVGEGYRLQDGDVVKIVAAAGKR | soluble
6 | MEALGKTILASDDINSIKKNLAKHIVHLNEENEKYRNEIKLLKKNKDINNQILFTLNKTEISSDMIDSLFMQTKNVIIQVTNKKY | not soluble
7 | MECYVFTPKGRIIKLPRGATIVDFAYAVHTDIGNSCVSARVNRILAPLHSVLENGQTIEIITAPWARPNPLEHHHHHH | not soluble
8 | MEDDHSKEMDRLRSQAAKVQSEKETFDRKRRETLEKHKKELDELEKKNKKEEDDLREQNMNLWNKNLDQQIALGNELNNKYTEISNQNSRLQIKIGQEEDIRVFKIKLLDVSKVWTDVKVNYQDYLRNTLDEHSNSNKSDVLKEIDTLIYNKEKLNEVLITAKKLLGKCQKFTTSDSFKVINDSLTELMRFKFEDDILIELKTIIKKNGSAEQSFLTKMDETIDKYNEMVNELPGLQLKSVEPIHQAAIQ | soluble
9 | MEDELPIIKGKKVILFAPTFRGSGHGTAHYPFFKIDFERLARYCEKNNAVVLFKMHPFVKNRLNIADKHKQYFVDVSDFREVNDILFITDLLISDYSSLIYEYAVFKKPMIFYAFDLEDYITTRDFYEPYESFVPGKIVQSFDALMDALDNEDYEGEKVIPFLDKHFKYQDGRSSERLVRNLFGS | soluble
10 | MEDERIKLLFKEKALEILMTIYYESLGGNDVYIQYIASKVNSPHSYVWLIIKKFEEAKMVECELEGRTKIIRLTDKGQKIAQQIKSIIDIMENDT | soluble
11 | MEDKEAVRRGVTLFALPAHAGEGAKAIWQTCDVIWSALGDSSEDVNWYTKRATLSAVYSATVLYWLGDETPGHEATWEFLDRRIDNVMQFEKFKADVQKNPLLKPLLAGPNWLFAQMRAPLEHHHHHH | soluble
